Results reported in the supplement of paper PMC12764529.
± gives the half width of the 95% confidence interval.

What was measured:
[1] = folding stability dG unfold from trypsin proteolysis; higher = more stable
How it was run: (§1)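 Only designs with AlphaFold2 dimer inter-PAE above 15 were retained; each was a mini-protein under 80 residues with no cysteine, in a PA-tagged cDNA display construct. After digestion with trypsin and chymotrypsin and sequencing, K50 was inferred by Bayesian fitting of counts, and unfolding free energy was derived per protease or combined against a sequence-predicted unfolded-state K50 and a shared folded-state K50.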

[2] = folding stability dG unfold from chymotrypsin proteolysis; higher = more stable
How it was run: as §1

[3] = folding stability dG unfold (combined trypsin and chymotrypsin); higher = more stable
How it was run: as §1

Row | Sequence | folding stability dG unfold [1] [kcal/mol] | folding stability dG unfold [2] [kcal/mol] | folding stability dG unfold [3] [kcal/mol]
1 | SAGGSAKKVVLLTIPPSANLPPNSKLVVKFPNGKEKTYKFNDKPVVILLVTDNNGNFSFGVSVEDKSAGGSA [r15_992_TrMRF] | 1.87 ± 0.063 | 3.44 ± 0.17 | 2.68 ± 0.3
2 | SAGGSAGGVKEALEELLKKLKPGEKKTITLEIEVDGKLVKIEIEVLPDGEIKITKIEEIPKEDLSAGGSAGG [r6_87_TrROS_Hall] | 2.97 ± 0.12 | 1.95 ± 0.096 | 2.47 ± 0.16
3 | SAGGSAGGSMKTVEIELVNKETGKKVTITVNDGKVTIRITNPDGEEKELEFPSLEEALEALLSSAGGSAGGS [r12_511_TrROS_Hall] | 2.45 ± 0.14 | 1.93 ± 0.19 | 2.19 ± 0.2
4 | SAGGGRPILFRPPDGSVEVVPVPADATLEEVKEVAEAAAAARGYTELSFDPATETVTIDLGGDRVEAASAGG [r13_572_JUSTAS] | -1.46 ± 0.47 | 0.824 ± 0.024 | 0.426 ± 0.049
5 | SAGGSAGGSAGGEKVTLTLELPAEEIEELAKALAPPGAKVKITKISYDKENKKVTIEIESAGGSAGGSAGGS [r10_1030_TrROS_Hall] | 0.937 ± 0.061 | 1.4 ± 0.026 | 1.23 ± 0.07
6 | SAGPYVMIRIKWPGGEELSIPIPGAKITDVERDGDHITFMFDSPPAAEDIKEEIEDHFPGLKIEIQPIDSAG [r5_453_TrROS] | 0.288 ± 0.16 | 1.17 ± 0.2 | 0.881 ± 0.14
7 | SAGGSAGGSGEVLLLSANSFSFSEGDGLLVVVNLPNGGYVVLPFKKGDLNLNLPSSGYSEFFGSAGGSAGGS [r12_746_TrMRF] | 1.3 ± 0.034 | 1.79 ± 0.046 | 1.59 ± 0.058
8 | SAGGSAGGSAGGDNVLILVKLPKGYRVYSINDPEVLKAVTLKELKDELEKKTGYPVEVLPSAGGSAGGSAGG [r7_259_TrMRF] | 1.48 ± 0.041 | 1.66 ± 0.18 | 1.57 ± 0.22
9 | SAGGNFVVPFKDPEQVKEIREAAEKGEEIEITPPDGKKFTFKVESVEVDPESGRVVIKLPSGKEFPLSAGGS [r16_254_TrMRF] | 0.275 ± 0.057 | 0.62 ± 0.24 | 0.617 ± 0.16
10 | SAGGSAGGSKKPKAKIKKIEFFPEGNKIVALVEFPDKVIKEIVFENLPPEEAIKKALEFAKKGSAGGSAGGS [r20_181_TrMRF] | 1.08 ± 0.036 | 1.42 ± 0.039 | 1.31 ± 0.12
11 | SAGGWIWIPPDDPEDAKEWARELVLMFANHMKEQGQEDMTVDVDIHVWDPKDGNWYRIPVEFRVKPDSAGGS [r8_163_TrROS] | 1.97 ± 0.044 | 2.31 ± 0.12 | 2.19 ± 0.13
12 | SAGGSAGGSAGGMSITISVPEKTATIEIPGLGKTITIPPGETITVPIPNVPPFKITTEPPSAGGSAGGSAGG [r11_939_JUSTAS] | 0.76 ± 0.059 | 0.854 ± 0.044 | 0.732 ± 0.086
13 | SAGGSMPVPYESKNVSPSGVEVSSTTYPYDFQIEKFPGSNPVITRTDPKTGEVTPIGTEEELEKLLKSAGGS [r8_232_JUSTAS] | -0.172 ± 0.047 | 0.182 ± 0.21 | 0.0982 ± 0.13
14 | SAGGKLTLEEIKALLKEGKEYSLEELLKKIAELLNLTVELEEEPEKVTVVKVDPETGEIVEEKEIDLSAGGS [r8_105_TrROS_Hall] | 2.01 ± 0.1 | 2.44 ± 0.036 | 2.28 ± 0.11
15 | SAGGSAGGSKEKVIEIKIKVKTKEEAKKKAEELAKELEKKGYKIKKVEIKYDKETKEVTVRIESAGGSAGGS [r20_155_TrROS_Hall] | 3.9 ± 0.2 | 4.02 ± 0.097 | 3.95 ± 0.12
16 | SAGGSAGGSAGKAESGDNAITLTLPGGHKVTIPNLPPNEPVWVKLNNRWVKIGDLKVNPKSAGGSAGGSAGG [r11_16_TrMRF] | -0.131 ± 0.16 | 0.227 ± 0.25 | 0.196 ± 0.18
17 | SAGGSAGGSAGKPEFELIAKIEVNGKTYYILRNKETGEYLIYDLDTGKKYTIRKDDPNLLSAGGSAGGSAGG [r11_1007_TrROS_Hall] | 2.47 ± 0.16 | 2.95 ± 0.066 | 2.78 ± 0.34
18 | SMTLITLTDPVTNVPVEKVEVRKLEDGTYEATVTTKEPSKTTTKTYPLPPDEKITDVLKSLGLKEAEINLSA [r9_492_JUSTAS] | 0.255 ± 0.036 | 0.538 ± 0.093 | 0.445 ± 0.17
19 | SAGGSASLEELAEKLREKLPPEEAEKLRELLKELEEKGYEIVEIRIEVLPNGEKKVTIKLKVKKKPSAGGSA [r15_613_TrROS_Hall] | 3.34 ± 0.2 | 3.32 ± 0.26 | 3.41 ± 0.17
20 | SAGGSAGGSAGGMKKKKLKEGVEIEFFREGDYLYVTTKIPETGKEETKKVKKVPKDIPLSAGGSAGGSAGGS [r10_240_JUSTAS] | -0.245 ± 0.45 | 0.298 ± 0.14 | 0.22 ± 0.23
21 | SPTQTITLTLPDRPVTVPLTAYPETGYVEITVTVTYPTGTKTYTFTVKAKSFEEVLAELSKLPEDFDINPSA [r9_713_TrMRF] | 1.83 ± 0.073 | 1.81 ± 0.088 | 1.85 ± 0.052
